Measured values as given in patent publication US20240287172A1 (SCIRHOM, published 2024).

T1: hiR1-FL-WT-T7 (human, UniProt Q96CC6 1-855)
T1 construct: on MEF-DKO cells
T1 sequence: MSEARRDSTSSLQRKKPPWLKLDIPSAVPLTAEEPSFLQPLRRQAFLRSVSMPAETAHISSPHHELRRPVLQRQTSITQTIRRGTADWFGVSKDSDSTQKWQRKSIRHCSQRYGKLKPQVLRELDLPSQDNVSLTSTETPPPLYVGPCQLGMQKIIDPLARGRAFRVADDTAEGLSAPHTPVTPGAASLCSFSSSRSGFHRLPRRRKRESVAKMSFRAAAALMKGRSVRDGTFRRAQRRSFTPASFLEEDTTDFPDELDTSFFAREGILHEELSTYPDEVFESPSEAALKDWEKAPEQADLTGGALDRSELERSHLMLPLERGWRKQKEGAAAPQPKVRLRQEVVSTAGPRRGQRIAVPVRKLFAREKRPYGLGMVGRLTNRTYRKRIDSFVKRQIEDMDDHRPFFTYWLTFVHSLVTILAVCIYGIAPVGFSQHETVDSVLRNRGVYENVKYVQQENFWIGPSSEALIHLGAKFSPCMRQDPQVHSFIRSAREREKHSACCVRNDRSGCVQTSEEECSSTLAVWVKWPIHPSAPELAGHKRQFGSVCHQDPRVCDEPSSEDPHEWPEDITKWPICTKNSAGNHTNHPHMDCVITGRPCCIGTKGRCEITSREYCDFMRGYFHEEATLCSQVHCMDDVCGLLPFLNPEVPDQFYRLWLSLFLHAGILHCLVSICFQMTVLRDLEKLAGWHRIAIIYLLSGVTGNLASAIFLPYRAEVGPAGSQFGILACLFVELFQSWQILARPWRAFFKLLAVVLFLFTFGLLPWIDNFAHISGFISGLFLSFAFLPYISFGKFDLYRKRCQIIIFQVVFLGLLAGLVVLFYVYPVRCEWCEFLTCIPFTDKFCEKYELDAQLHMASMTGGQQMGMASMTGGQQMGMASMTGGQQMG

T2: hiR2-FL-K536A-T7 (human, UniProt Q6PJF5 1-856)
T2 construct: on MEF-DKO cells
T2 sequence: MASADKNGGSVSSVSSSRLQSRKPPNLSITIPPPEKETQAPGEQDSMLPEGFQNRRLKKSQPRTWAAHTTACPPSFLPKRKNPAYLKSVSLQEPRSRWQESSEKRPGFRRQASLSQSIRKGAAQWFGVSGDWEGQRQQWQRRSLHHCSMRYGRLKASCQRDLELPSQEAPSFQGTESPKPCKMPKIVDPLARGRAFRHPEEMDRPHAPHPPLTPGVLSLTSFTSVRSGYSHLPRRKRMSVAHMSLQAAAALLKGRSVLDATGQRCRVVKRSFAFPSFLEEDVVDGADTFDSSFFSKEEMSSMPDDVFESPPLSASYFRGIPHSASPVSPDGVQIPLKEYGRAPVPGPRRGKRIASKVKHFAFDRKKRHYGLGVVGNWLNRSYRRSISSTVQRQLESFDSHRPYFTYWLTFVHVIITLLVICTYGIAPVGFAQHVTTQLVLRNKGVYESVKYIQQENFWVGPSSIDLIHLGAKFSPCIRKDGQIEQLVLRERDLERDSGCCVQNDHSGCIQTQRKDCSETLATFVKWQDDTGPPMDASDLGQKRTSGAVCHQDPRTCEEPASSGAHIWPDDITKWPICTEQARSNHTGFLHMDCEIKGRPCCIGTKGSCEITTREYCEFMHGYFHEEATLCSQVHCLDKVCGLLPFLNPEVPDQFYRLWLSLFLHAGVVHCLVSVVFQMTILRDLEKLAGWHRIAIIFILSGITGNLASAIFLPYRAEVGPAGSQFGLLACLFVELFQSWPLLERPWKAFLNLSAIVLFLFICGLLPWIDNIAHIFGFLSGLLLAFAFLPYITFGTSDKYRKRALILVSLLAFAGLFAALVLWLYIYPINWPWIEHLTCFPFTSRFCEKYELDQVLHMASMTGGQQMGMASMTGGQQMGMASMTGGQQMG

B1: antibody 3 (antibody, V domains shown)
VH: QVTLKESGPGILQPSQTLSLTCSFSGFSLTTFAMGIGWVRQPSGKGLEWLAHIWWDGEKYNNPVLKSRLTISKDTSKNQVFLRIANVDTPDTATYYCARISSIYYIIDNWGQGTSVTVSS
VL: DIVLTQSPATLSVTPGHSVSLSCRASQSISNNLHWYQKKSHESPRLLIKYVSQSISGIPSRFSGSGSGTDFTLSINSVETEDFGMYFCQQSYNWPLTFGAGTKLELK
notes: mouse IgG, kappa light chain; also called clone #3; purified antibody 3
B2: antibody 5 (antibody, V domains shown)
VH: QVTLKESGPGILQPSQTLSLTCSFSGFSLSTFGMGVGWIRQPSGKGLEWLAHIWWDDEKYYNSALKSRLTISKATSKNQAFLKIANVDTADTATYYCARISNYGSNYWYFNVWGTGTTVTVSS
VL: QVVLTQSPALMSASPGEKVTMTCSAGSSVSCMYWYQQKPGSSPRVLIYDTSNLASGVPARFTGSGSGTSYSLTISRMEAEDAASYYCQQWNSYPLTFGAGTKLELK
notes: mouse IgG, kappa light chain; also called clone #5; purified antibody 5

What was measured:
hiR1-FL-WT-T7 = biological target: T1, hiR1-FL-WT-T7; test: FACS on MEF-DKO-hiR1-FL-WT-T7 cells
hiR2-FL-K536A-T7 = biological target: T2, hiR2-FL-K536A-T7; test: FACS on MEF-DKO-hiR2-FL-K536A-T7 cells

Row | Binder | binding result (hiR1-FL-WT-T7) | binding result (hiR2-FL-K536A-T7)
1 | B1 | no binding (tested: 3 µg/ml) | 
2 | B2 |  | no binding (tested: 3 µg/ml)
